FireProtDB (doi:10.1006/jmbi.1997.1365)

Conditions: Homo sapiens, pH 2.7, Thermal, DSC, glycine 0.05 M, reversible: yes, whole UniProt chain shown

B1: Lysozyme C wild type, P61626 (protein)
chain: MKALIVLGLVLLSVTVQGKVFERCELARTLKRLGMDGYRGISLANWMCLAKWESGYNTRATNYNAGDRSTDYGIFQINSRYWCNDGKTPGAVNACHLSCSALLQDNIADAVACAKRVVRDPQGIRAWVAWRNRCQNRDVRQYVQGCGV
heat capacity change of unfolding (64.9 °C): 1.58 kcal/mol/K | unfolding enthalpy (calorimetric) (64.9 °C): 114 kcal/mol | unfolding enthalpy (van 't Hoff) (64.9 °C): 120 kcal/mol | Tm: 64.9 °C | heat capacity change of unfolding: 1.58 kcal/mol/K
